Assay results reported in the Human Domainome abundance scans (Beltran et al. 2025).
± gives the uncertainty stated by the source.

B1: Friend leukemia integration 1 transcription factor, residues 116 to 197; numbered along this chain, Q01543 (parent)
chain: NMTTNERRVIVPADPTLWTQEHVRQWLEWAIKEYSLMEIDTSFFQNMDGKELCKMNKEDFLRATTLYNTEVLLSHLSYLRES

Variants of: B1
Assay: abundance fitness (aPCA) (normalised: wild type 0, dead -1); higher = more abundant; growth selection in yeast, the domain comes from the species named
Settings: Homo sapiens

Point of comparison: NMTTNERRVIVPADPTLWTQEHVRQWLEWAIKEYSLMEIDYSFFQNMDGKELCKMNKEDFLRATTLYNTEVLLSHLSYLRES [T41Y], abundance fitness 0.051 ± 0.12. Against it:
- NMTTNERRVIVPADPTLWTQEHVRQWLEWAIKEYSLMEIDTSFEQNMDGKELCKMNKEDFLRATTLYNTEVLLSHLSYLRES [F44E] — lower, -0.991 ± 0.14
- NMTTNERRVIVPADPTLWTQEHVRQWLEWAIKEYSLMEIDTSFAQNMDGKELCKMNKEDFLRATTLYNTEVLLSHLSYLRES [F44A] — within error, -0.095 ± 0.042
- NMTTNERRVIVPADPTLWTQEHVRQWLEWAIKEYSLMEIDTSFCQNMDGKELCKMNKEDFLRATTLYNTEVLLSHLSYLRES [F44C] — within error, -0.117 ± 0.06
- NMTTNERRVIVPADPTLWTQEHVRQWLEWAIKEYSLMEIDTSFDQNMDGKELCKMNKEDFLRATTLYNTEVLLSHLSYLRES [F44D] — lower, -0.914 ± 0.2
- NMTTNERRVIVPADPTLWTQEHVRQWLEWAIKEYSLMEIDTSDFQNMDGKELCKMNKEDFLRATTLYNTEVLLSHLSYLRES [F43D] — within error, -0.175 ± 0.26
- NMTTNERRVIVPADPTLWTQEHVRQWLEWAIKEYSLMEIDTSAFQNMDGKELCKMNKEDFLRATTLYNTEVLLSHLSYLRES [F43A] — within error, -0.063 ± 0.077
- NMTTNERRVIVPADPTLWTQEHVRQWLEWAIKEYSLMEIDTSVFQNMDGKELCKMNKEDFLRATTLYNTEVLLSHLSYLRES [F43V] — within error, -0.118 ± 0.072
- NMTTNERRVIVPADPTLWTQEHVRQWLEWAIKEYSLMEIDTSIFQNMDGKELCKMNKEDFLRATTLYNTEVLLSHLSYLRES [F43I] — within error, -0.164 ± 0.13
- NMTTNERRVIVPADPTLWTQEHVRQWLEWAIKEYSLMEIDTSHFQNMDGKELCKMNKEDFLRATTLYNTEVLLSHLSYLRES [F43H] — within error, -0.167 ± 0.17
- NMTTNERRVIVPADPTLWTQEHVRQWLEWAIKEYSLMEIDTSLFQNMDGKELCKMNKEDFLRATTLYNTEVLLSHLSYLRES [F43L] — within error, 0.077 ± 0.062
- NMTTNERRVIVPADPTLWTQEHVRQWLEWAIKEYSLMEIDTSSFQNMDGKELCKMNKEDFLRATTLYNTEVLLSHLSYLRES [F43S] — within error, -0.037 ± 0.059
- NMTTNERRVIVPADPTLWTQEHVRQWLEWAIKEYSLMEIDTSWFQNMDGKELCKMNKEDFLRATTLYNTEVLLSHLSYLRES [F43W] — within error, 0.002 ± 0.073
- NMTTNERRVIVPADPTLWTQEHVRQWLEWAIKEYSLMEIDTSGFQNMDGKELCKMNKEDFLRATTLYNTEVLLSHLSYLRES [F43G] — lower, -0.204 ± 0.086
- NMTTNERRVIVPADPTLWTQEHVRQWLEWAIKEYSLMEIDTSQFQNMDGKELCKMNKEDFLRATTLYNTEVLLSHLSYLRES [F43Q] — within error, 0.004 ± 0.074
- NMTTNERRVIVPADPTLWTQEHVRQWLEWAIKEYSLMEIDTSKFQNMDGKELCKMNKEDFLRATTLYNTEVLLSHLSYLRES [F43K] — within error, -0.118 ± 0.12
- NMTTNERRVIVPADPTLWTQEHVRQWLEWAIKEYSLMEIDTSCFQNMDGKELCKMNKEDFLRATTLYNTEVLLSHLSYLRES [F43C] — lower, -0.35 ± 0.2
- NMTTNERRVIVPADPTLWTQEHVRQWLEWAIKEYSLMEIDTSTFQNMDGKELCKMNKEDFLRATTLYNTEVLLSHLSYLRES [F43T] — within error, -0.11 ± 0.1
- NMTTNERRVIVPADPTLWTQEHVRQWLEWAIKEYSLMEIDTSYFQNMDGKELCKMNKEDFLRATTLYNTEVLLSHLSYLRES [F43Y] — within error, -0.013 ± 0.16
- NMTTNERRVIVPADPTLWTQEHVRQWLEWAIKEYSLMEIDTSRFQNMDGKELCKMNKEDFLRATTLYNTEVLLSHLSYLRES [F43R] — within error, -0.091 ± 0.059
- NMTTNERRVIVPADPTLWTQEHVRQWLEWAIKEYSLMEIDTSPFQNMDGKELCKMNKEDFLRATTLYNTEVLLSHLSYLRES [F43P] — within error, -0.052 ± 0.066
- NMTTNERRVIVPADPTLWTQEHVRQWLEWAIKEYSLMEIDTSMFQNMDGKELCKMNKEDFLRATTLYNTEVLLSHLSYLRES [F43M] — within error, -0.019 ± 0.091
- NMTTNERRVIVPADPTLWTQEHVRQWLEWAIKEYSLMEIDGSFFQNMDGKELCKMNKEDFLRATTLYNTEVLLSHLSYLRES [T41G] — within error, -0.129 ± 0.097
- NMTTNERRVIVPADPTLWTQEHVRQWLEWAIKEYSLMEIDESFFQNMDGKELCKMNKEDFLRATTLYNTEVLLSHLSYLRES [T41E] — within error, -0.08 ± 0.11
- NMTTNERRVIVPADPTLWTQEHVRQWLEWAIKEYSLMEIDCSFFQNMDGKELCKMNKEDFLRATTLYNTEVLLSHLSYLRES [T41C] — within error, 0.015 ± 0.15
- NMTTNERRVIVPADPTLWTQEHVRQWLEWAIKEYSLMEIDFSFFQNMDGKELCKMNKEDFLRATTLYNTEVLLSHLSYLRES [T41F] — within error, 0.302 ± 0.19
- NMTTNERRVIVPADPTLWTQEHVRQWLEWAIKEYSLMEIDPSFFQNMDGKELCKMNKEDFLRATTLYNTEVLLSHLSYLRES [T41P] — within error, 0.003 ± 0.1
- NMTTNERRVIVPADPTLWTQEHVRQWLEWAIKEYSLMEIDNSFFQNMDGKELCKMNKEDFLRATTLYNTEVLLSHLSYLRES [T41N] — within error, -0.103 ± 0.17
- NMTTNERRVIVPADPTLWTQEHVRQWLEWAIKEYSLMEIDQSFFQNMDGKELCKMNKEDFLRATTLYNTEVLLSHLSYLRES [T41Q] — within error, -0.076 ± 0.11
- NMTTNERRVIVPADPTLWTQEHVRQWLEWAIKEYSLMEIDASFFQNMDGKELCKMNKEDFLRATTLYNTEVLLSHLSYLRES [T41A] — within error, -0.035 ± 0.094
- NMTTNERRVIVPADPTLWTQEHVRQWLEWAIKEYSLMEIDDSFFQNMDGKELCKMNKEDFLRATTLYNTEVLLSHLSYLRES [T41D] — within error, 0.063 ± 0.21
- NMTTNERRVIVPADPTLWTQEHVRQWLEWAIKEYSLMEIDRSFFQNMDGKELCKMNKEDFLRATTLYNTEVLLSHLSYLRES [T41R] — within error, -0.079 ± 0.062
- NMTTNERRVIVPADPTLWTQEHVRQWLEWAIKEYSLMEIDLSFFQNMDGKELCKMNKEDFLRATTLYNTEVLLSHLSYLRES [T41L] — the same, 0.051 ± 0.063
